In US20030235557A1:

What was measured:
[1] = biological target: mouse B6 class I antigens (D^b or K^b molecules on the surface of RMA-S cells) (mouse (C57Bl/6)); assay: RMA-S class I stabilisation, peptide 25 ug/ml, flow cytometry with FITC anti-D^b or anti-K^b
[2] = biological target: mouse B6 class I antigens (D^b or K^b molecules on the surface of RMA-S cells) (mouse (C57Bl/6)); assay: binding of 9mer peptides within p117-139 to mouse B6 (H-2^b) class I, RMA-S assay as in Example 4

Binder | Binding Affinity to Mouse MHC Class I (% increase of D^b or K^b on RMA-S cells) [1] | Binding Affinity to Mouse MHC Class I [2]
QASSGQARM [WT1 peptide P119-127 …] | – | 2%
ASSGQARMF [WT1 peptide P120-128 …] | – | 1%
ALLPAVPSL [WT1 peptide human p10-18 …] | 2.2% | –
NAPYLPSCL [WT1 peptide P130-138 …] | – | 79%
PNAPYLPSC [WT1 peptide P129-137 …] | – | 1%
MFPNAPYLP [WT1 peptide P127-135 …] | – | 2%
SCLESQPAI [WT1 peptide human p136-144 …] | 52% | –
ARMFPNAPY [WT1 peptide P125-133 …] | – | 1%
SQASSGQAR [WT1 peptide P118-126 …] | – | 2%
FPNAPYLPS [WT1 peptide P128-136 …] | – | 1%
APYLPSCLE [WT1 peptide P131-139 …] | – | 1%
QARMFPNAP [WT1 peptide P124-132 …] | – | 1%
PSQASSGQA [WT1 peptide P117-125 …] | – | 2%
SSGQARMFP [WT1 peptide P121-129 …] | – | 1%

Results, then the binder that gave them:

Binding Affinity to Mouse MHC Class I (% increase of D^b or K^b on RMA-S cells) [1] | Binding Affinity to Mouse MHC Class I [2] | Binder
5.8% | – | NLYQMTSQL [WT1 peptide p225-233 …]
1.2% | – | GCNKRYFKL [WT1 peptide p329-337 …]
1% | – | NQMNLGATL [WT1 peptide p239-247 …]
1.2% | – | QMTSQLECM [WT1 peptide p228-236 …]
0.8% | – | YSSDNLYQM [WT1 peptide p221-229 …]
33.6% | – | CMTWNQMNL [WT1 peptide p235-243 …]
